The results in this text go back to patent publication US20250197491A1 (published 2025).

The labels stand for the following.
B1: Antibody 5 (antibody, V domains shown)
VH: QVQLVESGGGLVKPGGSLRLSCAASGFTFSDYYMTWIRQAPGKGLEWVSYISISGITRYYADSVKGRFTISRDNAKNSLYLQMNSLRAEDTAVYYCARDQTGYFDYWGQGTLVTVSS
VL: DIVMTQSPATLSVSPGEKTTLSCRASQSFSSNLAWYQQKPGQAPRLLIYGASTRATGIPARFSGSGSGTEFTLTISSLQSEDFAVYYCQQYINWPHTFGQGTKVEIK
B2: Antibody 4 (antibody, V domains shown)
VH: QVQLVQSGAEVKKPGASVKVSCKASGYTFTSYGISWVRQAPGQGLEWMGWISAYNGNTNYAQKLQGRVTMTTDTSTSTAYMELRSLRSDDTAVYYCARSYSGSYWWFDPWGQGTLVTVSS
VL: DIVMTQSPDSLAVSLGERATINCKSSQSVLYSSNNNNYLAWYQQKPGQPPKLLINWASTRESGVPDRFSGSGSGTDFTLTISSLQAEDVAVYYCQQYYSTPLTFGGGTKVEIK
B3: Antibody 3 (antibody, V domains shown)
VH: B2 VH with Y104H
VL: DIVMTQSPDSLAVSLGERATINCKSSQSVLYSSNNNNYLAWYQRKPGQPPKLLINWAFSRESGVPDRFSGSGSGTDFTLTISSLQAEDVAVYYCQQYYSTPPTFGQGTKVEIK
B4: Antibody 1 (antibody, V domains shown)
VH: QVQLVESGGGLVKPGGSLRLSCAASGFTFSDYYMSWIRQAPGKGLEWVSYISSSGSIKKYADSVKGRFTISRDNAKNSLYLQMNSLRGEDTAVYYCARTNWHFDYWGQGTLVTVSS
VL: EIVLTQSPGTLSLSPGERATLSCRASQSVSSSYLAWYQQKPGQAPRLLIFGASTRATGIPDRFSGSGSGTDFTLTISRLEPEDVAVYYCQQYYSTPFTFGPGTKVDIK
B5: Antibody 2 (antibody, V domains shown)
VH: QVQLVESGGDLVKPGGSLRLSCAASGFTFRDYYMSWIRQAPGKGLEWVSYISPSGSTIFYADSVKGRFTISRDNAKNSLYLQMNSLRAEDTAVYYCAKDRVRLFDYWGQGTLVTVSS
VL: EIVLTQSPATLSLSPGERATLSCRASQSVSSSYLAWYQQKPGQAPRLLIYGASTRATGIPARFSGSGSGTDFTLTISRLEPEDFAVYYCQQRSNWPITFGQGTRLEIK

Positions count from the first letter of the chain named.

In this experiment the target is Human full length LILRB1 (UniProt Q8NHL6 24-650). Put plainly: flow cytometry, HEK293 cells overexpressing LILRB1. For orientation: A flow cytometer gives signals particle by particle.
Human full length LILRB1, sequence (Q8NHL6 24-650): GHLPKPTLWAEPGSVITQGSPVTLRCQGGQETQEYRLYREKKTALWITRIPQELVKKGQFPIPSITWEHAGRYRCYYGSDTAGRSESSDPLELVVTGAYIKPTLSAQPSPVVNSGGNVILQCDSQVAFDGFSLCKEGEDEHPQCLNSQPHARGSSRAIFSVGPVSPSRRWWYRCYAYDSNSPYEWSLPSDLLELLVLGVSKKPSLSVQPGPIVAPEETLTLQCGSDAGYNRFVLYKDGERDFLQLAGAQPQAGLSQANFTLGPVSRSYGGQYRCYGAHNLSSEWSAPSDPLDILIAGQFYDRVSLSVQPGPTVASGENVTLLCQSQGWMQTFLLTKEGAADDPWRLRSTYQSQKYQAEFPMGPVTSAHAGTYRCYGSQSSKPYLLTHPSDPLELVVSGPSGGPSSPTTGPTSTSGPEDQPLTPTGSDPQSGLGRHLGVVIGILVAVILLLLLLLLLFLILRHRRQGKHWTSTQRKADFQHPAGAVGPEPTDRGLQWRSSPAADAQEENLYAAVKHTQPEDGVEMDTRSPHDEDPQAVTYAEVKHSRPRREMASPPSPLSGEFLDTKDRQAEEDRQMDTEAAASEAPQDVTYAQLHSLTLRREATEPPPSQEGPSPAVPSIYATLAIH
As usually defined, the EC50 is the midpoint of the concentration-response curve. Molecule B1 yielded a 50% effective concentration (EC50) of 2.24 nM.
Under B2 stands 1.21 nM; under B3, 1.57 nM; under B4, 0.37 nM.
Under B5 stands 0.52 nM.
